Laboratory results published in patent US20220411536A1 (NUMAB THERAPEUTICS, published 2022).

T1: recombinant human IL-23R (custom-made by Trenzyme) (human, UniProt Q5VWK5 24-355)
T1 sequence (looked up): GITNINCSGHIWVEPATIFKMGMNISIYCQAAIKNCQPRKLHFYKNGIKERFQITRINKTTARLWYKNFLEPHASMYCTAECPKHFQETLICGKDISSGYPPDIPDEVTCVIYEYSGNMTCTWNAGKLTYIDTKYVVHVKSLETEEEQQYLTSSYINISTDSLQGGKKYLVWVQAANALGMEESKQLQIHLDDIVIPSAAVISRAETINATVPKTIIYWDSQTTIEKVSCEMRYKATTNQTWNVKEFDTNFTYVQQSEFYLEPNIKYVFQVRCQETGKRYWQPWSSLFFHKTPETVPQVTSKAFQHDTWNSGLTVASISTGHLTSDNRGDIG

B1: PRO1546 (multispecific antibody)
chain 1: DIQMTQSPSSLSASVGDRVTITCQASENIYSFLAWYQQKPGKAPKLLIYSASKLAAGVPSRFSGSGSGTDFTLTISSLQPEDFATYYCQQTNRYSNPDIYNVFGTGTKVTVLGGGGGSGGGGSGGGGSGGGGSEVQLVESGGGLVQPGGSLRLSCAASGIDFNSNYYMCWVRQAPGKGLEWIGCIYVGSHVNTYYANWAKGRFTISRDNSKNTVYLQMNSLRAEDTAVYYCATSGSSVLYFKFWGQGTLVTVSSGGGGSGGGGSDVVMTQSPSSLSASVGDRVTITCQASQIISSRSAWYQQKPGQPPKLLIYQASKLASGVPSRFSGSGSGTDFTLTISSLQPEDFATYYCQCTYIDSNFGAFGCGTKLTVLGGGSGGSDIQMTQSPSSLSASVGDRVTITCQSSQSVFSNNYLAWFQQKPGQSPKRLIYSASTLASGVPSRFSGSGSGTDFTLTISSLQPEDFATYYCLGSYACSSADCYVFGTGTKVTVLG
chain 2: DIQMTQSPSSLSASVGDRVTITCQASQSINDYLAWYQQKPGKAPKLLIYKASTLASGVPSRFSGSGSGTDFTLTISSLQPEDFATYYCQAAYIITDIDNVFGTGTKVTVLGGGGGSGGGGSGGGGSGGGGSQVQLQESGPGLVKPSETLSLTCKVSGFSFSSGYDMCWIRQPPGKGLEWIGCVVAGSVDITYYASWAKGRVTISVDSSKNQFSLKLSSVTAADTAVYYCARKDAYSDAFNLWGQGTLVTVSSGGGGSGGGGSEVQLVESGGGLVQPGGSLRLSCAASGFSLSSYDMSWVRQAPGKGLAWIGASYASGPTYYASWAKGRFTISRDNSKNTVYLQMNSLRAEDTATYFCARGGWTGTSHSNIWGQGTLVTVSSGGGSGGGSEVQLVESGGGLVQPGGSLRLSCAASGFSFSSSYWICWVRQAPGKCLEWVGCVFTGDGTTYYASWAKGRFTISRDNSKNTVYLQMNSLRAEDTATYFCARPVSVYYYGMDLWGQGTLVTVSS
B2: PRO1544 (multispecific antibody)
chain 1: DIQMTQSPSSLSASVGDRVTITCQASQSINDYLAWYQQKPGKAPKLLIYKASTLASGVPSRFSGSGSGTDFTLTISSLQPEDFATYYCQAAYIITDIDNVFGTGTKVTVLGGGGGSGGGGSGGGGSGGGGSQVQLQESGPGLVKPSETLSLTCKVSGFSFSSGYDMCWIRQPPGKGLEWIGCVVAGSVDITYYASWAKGRVTISVDSSKNQFSLKLSSVTAADTAVYYCARKDAYSDAFNLWGQGTLVTVSSGGGGSGGGGSDVVMTQSPSSLSASVGDRVTITCQASQIISSRSAWYQQKPGQPPKLLIYQASKLASGVPSRFSGSGSGTDFTLTISSLQPEDFATYYCQCTYIDSNFGAFGCGTKLTVLGGGSGGSDIQMTQSPSSLSASVGDRVTITCQSSQSVFSNNYLAWFQQKPGQSPKRLIYSASTLASGVPSRFSGSGSGTDFTLTISSLQPEDFATYYCLGSYACSSADCYVFGTGTKVTVLG
chain 2: not shown
B3: PRO1545 (multispecific antibody)
chain 1: B2 chain 1
chain 2: DIQMTQSPSSLSASVGDRVTITCQASENIYSFLAWYQQKPGKAPKLLIYSASKLAAGVPSRFSGSGSGTDFTLTISSLQPEDFATYYCQQTNRYSNPDIYNVFGTGTKVTVLGGGGGSGGGGSGGGGSGGGGSEVQLVESGGGLVQPGGSLRLSCAASGIDFNSNYYMCWVRQAPGKGLEWIGCIYVGSHVNTYYANWAKGRFTISRDNSKNTVYLQMNSLRAEDTAVYYCATSGSSVLYFKFWGQGTLVTVSSGGGGSGGGGSEVQLVESGGGLVQPGGSLRLSCAASGFSLSSYDMSWVRQAPGKGLAWIGASYASGPTYYASWAKGRFTISRDNSKNTVYLQMNSLRAEDTATYFCARGGWTGTSHSNIWGQGTLVTVSSGGGSGGGSEVQLVESGGGLVQPGGSLRLSCAASGFSFSSSYWICWVRQAPGKCLEWVGCVFTGDGTTYYASWAKGRFTISRDNSKNTVYLQMNSLRAEDTATYFCARPVSVYYYGMDLWGQGTLVTVSS
B4: PRO1076 (scFv, V domains shown)
VH: QVQLQESGPGLVKPSETLSLTCKVSGFSFSSGYDMCWIRQPPGKGLEWIGCVVAGSVDITYYASWAKGRVTISVDSSKNQFSLKLSSVTAADTAVYYCARKDAYSDAFNLWGQGTLVTVSS
VL: DIQMTQSPSSLSASVGDRVTITCQASQSINDYLAWYQQKPGKAPKLLIYKASTLASGVPSRFSGSGSGTDFTLTISSLQPEDFATYYCQQAYIITDIDNVFGTGTKVTVLG
notes: also called 33-03-G02 VL-G109A

Columns and labels:
[1] = target: T2, Fc-tagged human PD-L1 extracellular domain (SinoBiological, cat. 10084-H02H) (human, UniProt Q9NZQ7 19-238); assay: SPR, captured Fc-PD-L1 ECD, kinetic
T2 construct: extracellular domain; also called hPD-L1; not shown: Fc tag of the bought protein

[2] = target: T3, recombinant human Her2 ECD (SinoBiological, cat. 10004-HCCH) (human, UniProt P04626 23-652); assay: SPR, immobilised Her2 ECD
T3 construct: extracellular domain; bought protein

[3] = target: T2, Fc-tagged human PD-L1 extracellular …; assay: SPR, captured Fc-PD-L1 ECD, steady state
[4] = target: T4, recombinant human CD3E ECD (SinoBiological, cat. 10977-H08H) (human, UniProt P07766 23-126); assay: SPR, immobilised CD3e ECD, two-state model (kd1); kd1, first step of the two-state fit
T4 construct: extracellular domain; bought protein; also called CD3s
T4 sequence (P07766 23-126): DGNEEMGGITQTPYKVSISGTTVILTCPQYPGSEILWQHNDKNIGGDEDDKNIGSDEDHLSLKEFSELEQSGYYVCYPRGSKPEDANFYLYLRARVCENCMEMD

[5] = target: T5, human PD-L1 expressed on cells (CHO-PD-L1, HCC1954, HCC827) (human, UniProt Q9NZQ7 19-290); assay: flow cytometry, inhibition of biotinylated PD-1 binding to HCC1954 cells
T5 construct: whole, on cells; also called hPD-L1; PD-L1 expressing cells

mouse serum albumin = target: T6, mouse serum albumin (mouse, UniProt P07724 25-608); assay: SPR, immobilised MSA, pH 5.5
T6 construct: also called MSA; mouse SA
T6 sequence (P07724 25-608 limits assumed): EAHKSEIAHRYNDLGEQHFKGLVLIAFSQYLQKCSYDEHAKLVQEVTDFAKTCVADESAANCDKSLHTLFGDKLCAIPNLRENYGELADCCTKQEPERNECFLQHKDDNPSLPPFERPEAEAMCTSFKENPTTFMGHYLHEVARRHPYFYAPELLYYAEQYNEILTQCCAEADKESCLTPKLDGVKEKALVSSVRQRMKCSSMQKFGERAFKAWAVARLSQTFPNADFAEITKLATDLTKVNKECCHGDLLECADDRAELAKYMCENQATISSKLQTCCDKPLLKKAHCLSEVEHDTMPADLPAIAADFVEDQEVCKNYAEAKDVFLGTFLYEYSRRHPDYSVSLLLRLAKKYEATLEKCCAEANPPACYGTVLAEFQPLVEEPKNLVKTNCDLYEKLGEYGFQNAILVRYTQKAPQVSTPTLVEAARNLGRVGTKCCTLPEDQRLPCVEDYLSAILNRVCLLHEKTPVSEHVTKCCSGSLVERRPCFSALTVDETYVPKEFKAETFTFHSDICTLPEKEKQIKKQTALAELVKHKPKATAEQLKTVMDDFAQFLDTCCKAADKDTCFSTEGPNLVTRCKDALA

human serum albumin = target: T7, human serum albumin (human, UniProt P02768 25-609); assay: SPR, immobilised HSA, pH 5.5
T7 construct: also called HSA; human SA

[6] = target: T5, human PD-L1 expressed on cells …; assay: flow cytometry, inhibition of biotinylated PD-1 binding to HCC827 cells
[7] = target: T4, recombinant human CD3E ECD …; assay: SPR, immobilised CD3e ECD, two-state model
[8] = target: T4, recombinant human CD3E ECD …; assay: SPR, immobilised CD3e ECD, two-state model; overall KD of the two-state fit
[9] = target: T4, recombinant human CD3E ECD …; assay: SPR, immobilised CD3e ECD, two-state model (ka1); ka1, first step of the two-state fit
[10] = target: T1, recombinant human IL-23R (custom-made …); assay: SPR, immobilised IL-23R
[11] = target: CD3e on Jurkat PD-1 NFAT reporter T cells or on T cells of human PBMCs (human, UniProt P07766 23-207); assay: cell-based or functional assay
[12] = target: T4, recombinant human CD3E ECD …; assay: SPR, immobilised CD3e ECD, two-state model (kd1)
[13] = target: T4, recombinant human CD3E ECD …; assay: SPR, immobilised CD3e ECD, two-state model (ka1)
[14] = target: T2, Fc-tagged human PD-L1 extracellular …; assay: SPR, alanine mutants of 33-03-G02
[15] = target: T2, Fc-tagged human PD-L1 extracellular …; assay: SPR, captured Fc-PD-L1 ECD, scFv analyte, kinetic

Binder | Kd [1] [nM] | koff [1] [s⁻¹] | kon [1] [M⁻¹ s⁻¹] | binding result [2] | Kd [3] [nM] | koff [4] [s⁻¹] | IC50 [5] [µg/mL] | Kd (mouse serum albumin) [nM] | koff (mouse serum albumin) [s⁻¹] | kon (mouse serum albumin) [M⁻¹ s⁻¹] | Kd (human serum albumin) [nM] | koff (human serum albumin) [s⁻¹] | kon (human serum albumin) [M⁻¹ s⁻¹] | IC50 [6] [µg/mL] | KD1 [7] [nM] | kd2 [7] [s⁻¹] | IC50, NFAT reporter, CHO-PD-L1 (A2 clone) cells [11] [nM] | IC50, NFAT reporter, HCC1954 cells [11] [nM] | rel. max. activation vs PRO1497, NFAT reporter, HCC1954 cells [11] [%] | rel. max. activation vs PRO1497 on HCC1954, NFAT reporter, CHO-PD-L1 (A2 clone) cells [11] [%] | also measured
B1 | 14.3 | 0.000345 | 24100 | no binding (tested: 90 nM highest concentration) | 380 | 0.00752 | 51.9 | 17.3 | 0.00116 | 67000 | 0.797 | 0.000134 | 168000 | 254 | 38.2 | 0.00533 | 31.5 | 95.4 | 28 | 60 | Kd [8]: 18.3 nM; kon [9]: 197000 M⁻¹ s⁻¹; Kd [10]: 0.848 nM; koff [10]: 0.000388 s⁻¹; kon [10]: 458000 M⁻¹ s⁻¹
B2 | 284 | 0.00117 | 4120 |  | 809 |  | 0.528 | 19.5 | 0.00112 | 57500 | 0.87 | 0.000121 | 139000 | 46 | 23.2 | 0.0042 | 10.5 | 2.29 | 78 | 42 | Kd [2]: 0.354 nM; koff [2]: 5.56e-05 s⁻¹; kon [2]: 157000 M⁻¹ s⁻¹; koff [12]: 0.00516 s⁻¹; kon [13]: 222000 M⁻¹ s⁻¹; Kd [7]: 12.7 nM; binding result [10]: no binding (tested: 90 nM highest concentration)
B3 | 1130 | 0.0022 | 1950 | no binding (tested: 90 nM highest concentration) | 879 | 0.00645 | 4.14 | 15.9 | 0.00108 | 67900 | 0.693 | 0.000119 | 171000 | 88.1 | 38.2 | 0.00432 | 26 | 12.2 | 67 | 59 | Kd [8]: 16.7 nM; kon [9]: 169000 M⁻¹ s⁻¹; Kd [10]: 1.52 nM; koff [10]: 0.000471 s⁻¹; kon [10]: 309000 M⁻¹ s⁻¹
B4 |  |  |  |  |  |  |  |  |  |  |  |  |  |  |  |  |  |  |  |  | fold reduction of affinity vs the original domain [14]: > 100 fold; Kd [15]: 7.52 nM; koff [15]: 0.0135 s⁻¹; kon [15]: 1.8e+06 M⁻¹ s⁻¹
